Reference: the supplement of paper PMC10065799, “High-throughput profiling of sequence recognition by tyrosine kinases and SH2 domains using bacterial peptide display” (eLife, 2023)

Assays:
AncSZ = test: phosphorylation enrichment, bacterial display (enrichment ratio); higher = better substrate or ligand; peptides without Tyr show the background
EPHB1 = EPHB1 (UniProt P54762); test: as above
EPHB2 = EPHB2 (UniProt P29323); test: as above
FGFR1 = FGFR1 (UniProt P11362); test: as above
FGFR3 = FGFR3 (UniProt P22607); test: as above
Fer (mouse) = test: as above
Fes = Fes (UniProt P07332); test: as above
Fyn = Fyn (UniProt P06241); test: as above
Hck = Hck (UniProt P08631); test: as above
Jak2 = Jak2 (UniProt O60674); test: as above
MERTK = MERTK (UniProt Q12866); test: as above
c-Abl (mouse) = test: as above
c-Src = test: as above
Grb2 SH2 = Grb2 SH2 (UniProt P62993); test: SH2 binding enrichment of the phosphorylated peptide, bacterial display (enrichment ratio); higher = better substrate or ligand; peptides without Tyr show the background
SHP2-C SH2 = test: as above
c-Src SH2 = test: as above
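For SH2 binding enrichment of the phosphorylated peptide, bacterial display in this document: peptide library displayed on the E. coli surface as eCPX fusions, selected cells deep-sequenced, score is each peptide's frequency after selection divided by its frequency in the input.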
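For phosphorylation enrichment, bacterial display in this document: 11-residue human phosphosite peptides and single-mutation variants displayed on the E. coli surface, counted by deep sequencing, each peptide's frequency after selection divided by its frequency in the unselected input library; frequency after pTyr selection over input frequency; kinase dosed for 20-30% of maximal phosphorylation in three min.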

Sequence of Fes (P07332 whole entry, looked up): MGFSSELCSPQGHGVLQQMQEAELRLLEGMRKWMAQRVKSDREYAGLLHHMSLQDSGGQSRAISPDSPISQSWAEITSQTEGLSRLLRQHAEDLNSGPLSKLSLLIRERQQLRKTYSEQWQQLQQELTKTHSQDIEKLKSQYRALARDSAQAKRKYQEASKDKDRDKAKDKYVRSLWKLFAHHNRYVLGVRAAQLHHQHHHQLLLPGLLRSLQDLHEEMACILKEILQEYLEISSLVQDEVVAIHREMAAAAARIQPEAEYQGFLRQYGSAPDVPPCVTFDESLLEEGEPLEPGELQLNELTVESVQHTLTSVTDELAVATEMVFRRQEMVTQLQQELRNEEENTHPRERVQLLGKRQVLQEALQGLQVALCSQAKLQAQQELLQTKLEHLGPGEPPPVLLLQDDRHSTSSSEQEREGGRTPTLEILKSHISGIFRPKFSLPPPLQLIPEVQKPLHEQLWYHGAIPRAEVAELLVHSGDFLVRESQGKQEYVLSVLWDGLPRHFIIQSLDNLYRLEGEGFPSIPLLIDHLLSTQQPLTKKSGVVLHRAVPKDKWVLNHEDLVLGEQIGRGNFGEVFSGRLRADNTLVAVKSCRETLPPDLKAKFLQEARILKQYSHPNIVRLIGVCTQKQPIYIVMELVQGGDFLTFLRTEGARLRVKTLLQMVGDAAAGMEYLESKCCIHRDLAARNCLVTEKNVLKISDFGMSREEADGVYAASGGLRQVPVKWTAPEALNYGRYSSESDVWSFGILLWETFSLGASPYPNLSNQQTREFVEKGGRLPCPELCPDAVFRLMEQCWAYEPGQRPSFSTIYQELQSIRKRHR
Sequence of MERTK (Q12866 whole entry, looked up): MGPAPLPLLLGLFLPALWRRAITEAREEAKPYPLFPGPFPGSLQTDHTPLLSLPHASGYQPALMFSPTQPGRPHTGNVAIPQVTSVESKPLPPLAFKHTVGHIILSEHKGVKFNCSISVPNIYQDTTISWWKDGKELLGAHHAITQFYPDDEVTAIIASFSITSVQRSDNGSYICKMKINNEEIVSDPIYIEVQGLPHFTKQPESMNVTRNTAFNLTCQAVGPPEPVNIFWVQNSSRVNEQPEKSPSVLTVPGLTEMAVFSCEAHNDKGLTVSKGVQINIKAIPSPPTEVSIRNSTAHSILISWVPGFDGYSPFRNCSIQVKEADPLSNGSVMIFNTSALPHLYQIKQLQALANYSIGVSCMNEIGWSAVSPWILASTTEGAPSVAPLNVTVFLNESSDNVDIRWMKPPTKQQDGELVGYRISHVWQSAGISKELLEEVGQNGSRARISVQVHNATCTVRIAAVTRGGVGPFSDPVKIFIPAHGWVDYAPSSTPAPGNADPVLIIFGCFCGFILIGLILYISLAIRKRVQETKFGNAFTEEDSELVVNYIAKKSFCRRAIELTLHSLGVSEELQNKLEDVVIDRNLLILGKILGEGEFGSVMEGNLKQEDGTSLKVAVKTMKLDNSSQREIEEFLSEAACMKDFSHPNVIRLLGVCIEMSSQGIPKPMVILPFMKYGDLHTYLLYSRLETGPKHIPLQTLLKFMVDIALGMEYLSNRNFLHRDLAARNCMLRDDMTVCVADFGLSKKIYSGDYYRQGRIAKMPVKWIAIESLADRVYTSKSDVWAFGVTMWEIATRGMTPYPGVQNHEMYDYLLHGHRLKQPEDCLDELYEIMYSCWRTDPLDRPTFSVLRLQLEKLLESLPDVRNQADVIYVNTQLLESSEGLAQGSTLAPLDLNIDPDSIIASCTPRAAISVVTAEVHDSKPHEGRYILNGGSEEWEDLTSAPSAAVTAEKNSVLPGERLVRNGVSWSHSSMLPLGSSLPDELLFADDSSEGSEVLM
Sequence of EPHB2 (P29323 whole entry, looked up): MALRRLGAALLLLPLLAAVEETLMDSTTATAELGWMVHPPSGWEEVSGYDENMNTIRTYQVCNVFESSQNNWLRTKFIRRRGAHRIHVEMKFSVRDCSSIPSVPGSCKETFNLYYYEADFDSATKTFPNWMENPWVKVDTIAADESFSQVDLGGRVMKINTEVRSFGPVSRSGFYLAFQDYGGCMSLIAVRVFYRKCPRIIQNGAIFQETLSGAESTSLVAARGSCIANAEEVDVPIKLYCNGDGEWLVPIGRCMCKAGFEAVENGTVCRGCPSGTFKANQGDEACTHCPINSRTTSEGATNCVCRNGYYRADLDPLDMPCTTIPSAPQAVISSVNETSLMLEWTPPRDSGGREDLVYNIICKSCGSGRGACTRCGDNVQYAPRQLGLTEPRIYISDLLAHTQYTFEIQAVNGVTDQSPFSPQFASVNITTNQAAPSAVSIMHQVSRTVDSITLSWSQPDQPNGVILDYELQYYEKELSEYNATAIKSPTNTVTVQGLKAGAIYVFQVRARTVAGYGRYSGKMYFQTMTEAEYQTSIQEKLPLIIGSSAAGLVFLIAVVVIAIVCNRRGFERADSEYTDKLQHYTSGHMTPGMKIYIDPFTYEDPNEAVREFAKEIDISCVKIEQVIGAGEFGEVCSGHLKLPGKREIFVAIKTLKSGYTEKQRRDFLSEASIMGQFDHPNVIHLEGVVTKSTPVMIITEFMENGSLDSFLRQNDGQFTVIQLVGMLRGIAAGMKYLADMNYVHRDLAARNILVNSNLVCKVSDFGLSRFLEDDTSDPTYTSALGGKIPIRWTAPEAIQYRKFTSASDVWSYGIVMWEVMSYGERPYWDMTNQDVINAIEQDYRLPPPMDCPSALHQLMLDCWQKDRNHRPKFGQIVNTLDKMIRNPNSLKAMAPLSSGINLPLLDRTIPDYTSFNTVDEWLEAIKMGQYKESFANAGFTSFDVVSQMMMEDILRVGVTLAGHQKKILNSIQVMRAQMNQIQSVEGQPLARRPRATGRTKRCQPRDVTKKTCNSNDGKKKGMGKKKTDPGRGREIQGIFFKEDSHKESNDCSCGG
Sequence of Jak2 (O60674 whole entry, looked up): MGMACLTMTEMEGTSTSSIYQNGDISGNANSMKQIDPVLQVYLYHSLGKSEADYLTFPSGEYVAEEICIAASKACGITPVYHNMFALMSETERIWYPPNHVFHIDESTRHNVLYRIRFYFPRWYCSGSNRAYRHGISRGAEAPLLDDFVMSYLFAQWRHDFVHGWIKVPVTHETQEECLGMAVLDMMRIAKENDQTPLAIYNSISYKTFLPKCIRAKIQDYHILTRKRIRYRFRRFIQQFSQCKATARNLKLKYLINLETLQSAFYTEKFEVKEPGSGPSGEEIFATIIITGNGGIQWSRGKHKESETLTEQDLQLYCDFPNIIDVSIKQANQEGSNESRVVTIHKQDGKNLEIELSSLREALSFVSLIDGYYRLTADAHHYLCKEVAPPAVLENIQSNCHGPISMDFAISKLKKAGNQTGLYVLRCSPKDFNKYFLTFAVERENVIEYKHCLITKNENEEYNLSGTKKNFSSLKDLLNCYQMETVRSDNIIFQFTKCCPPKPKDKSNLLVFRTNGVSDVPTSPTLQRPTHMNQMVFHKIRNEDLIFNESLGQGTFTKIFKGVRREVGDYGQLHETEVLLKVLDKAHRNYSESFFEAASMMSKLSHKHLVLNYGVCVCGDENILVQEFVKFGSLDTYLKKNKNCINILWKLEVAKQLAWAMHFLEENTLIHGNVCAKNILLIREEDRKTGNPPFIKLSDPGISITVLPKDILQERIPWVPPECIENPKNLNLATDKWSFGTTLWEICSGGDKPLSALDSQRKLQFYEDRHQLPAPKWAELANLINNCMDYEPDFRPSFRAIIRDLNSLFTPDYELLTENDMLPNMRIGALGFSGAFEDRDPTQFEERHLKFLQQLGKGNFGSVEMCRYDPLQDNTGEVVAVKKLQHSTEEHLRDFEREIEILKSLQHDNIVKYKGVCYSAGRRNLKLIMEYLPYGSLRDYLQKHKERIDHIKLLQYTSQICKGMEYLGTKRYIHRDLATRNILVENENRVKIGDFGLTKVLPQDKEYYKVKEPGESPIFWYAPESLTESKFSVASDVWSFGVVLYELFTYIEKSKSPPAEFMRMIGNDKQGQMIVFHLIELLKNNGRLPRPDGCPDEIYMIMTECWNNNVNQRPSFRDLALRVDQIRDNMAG
Sequence of Grb2 SH2 (P62993 whole entry, looked up): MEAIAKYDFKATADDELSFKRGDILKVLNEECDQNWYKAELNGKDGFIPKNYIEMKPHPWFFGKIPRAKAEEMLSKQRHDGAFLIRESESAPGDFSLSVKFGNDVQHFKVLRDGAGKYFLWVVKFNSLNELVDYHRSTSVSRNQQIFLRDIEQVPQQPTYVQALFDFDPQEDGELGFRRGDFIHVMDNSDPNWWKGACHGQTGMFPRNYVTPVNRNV
Sequence of Fyn (P06241 whole entry, looked up): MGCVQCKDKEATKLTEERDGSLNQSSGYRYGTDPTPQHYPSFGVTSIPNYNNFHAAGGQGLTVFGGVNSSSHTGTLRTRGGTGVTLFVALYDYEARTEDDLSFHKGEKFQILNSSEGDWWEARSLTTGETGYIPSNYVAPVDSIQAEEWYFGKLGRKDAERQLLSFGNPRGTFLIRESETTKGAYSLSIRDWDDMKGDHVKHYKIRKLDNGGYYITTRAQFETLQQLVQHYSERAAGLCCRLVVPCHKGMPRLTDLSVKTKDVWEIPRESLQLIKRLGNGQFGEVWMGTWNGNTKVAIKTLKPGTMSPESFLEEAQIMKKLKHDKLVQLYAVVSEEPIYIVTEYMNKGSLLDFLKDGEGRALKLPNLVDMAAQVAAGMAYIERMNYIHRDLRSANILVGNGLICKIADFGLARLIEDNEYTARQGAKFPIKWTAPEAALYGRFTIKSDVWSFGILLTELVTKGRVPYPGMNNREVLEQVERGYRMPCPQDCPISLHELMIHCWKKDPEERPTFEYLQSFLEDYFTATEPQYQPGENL

KKHIPYKEHKS [CSNK1G1_Y205_R206K] gave a phosphorylation enrichment (AncSZ) of 1.53, a phosphorylation enrichment (EPHB1) of 1.15 and a phosphorylation enrichment (EPHB2) of 0.951. For the same sequence, the phosphorylation enrichment (FGFR1) was 0.942, the phosphorylation enrichment (FGFR3) was 2.2 and the phosphorylation enrichment (Fer (mouse)) was 1.2. It also gave a phosphorylation enrichment (Fes) of 2.1, a phosphorylation enrichment (Fyn) of 0.597 and a phosphorylation enrichment (Hck) of 0.842. It also gave a phosphorylation enrichment (Jak2) of 3.96, a phosphorylation enrichment (MERTK) of 0.987 and a phosphorylation enrichment (c-Abl (mouse)) of 3.19. For the same sequence, the phosphorylation enrichment (c-Src) was 1.03, the SH2 binding enrichment (Grb2 SH2) was 1.89 and the SH2 binding enrichment (SHP2-C SH2) was 2.23. For the same sequence, the SH2 binding enrichment (c-Src SH2) was 1.82.

With LDFNEYFRDLN [HPRT1_Y198_YF] the phosphorylation enrichment (AncSZ) was 1.24, the phosphorylation enrichment (EPHB1) was 0.442 and the phosphorylation enrichment (EPHB2) was 0.461. It also gave a phosphorylation enrichment (FGFR1) of 0.513, a phosphorylation enrichment (FGFR3) of 0.697 and a phosphorylation enrichment (Fer (mouse)) of 0.382. The phosphorylation enrichment (Fes) was 1.15, the phosphorylation enrichment (Fyn) was 0.465 and the phosphorylation enrichment (Hck) was 0.486. The phosphorylation enrichment (Jak2) was 0.998, the phosphorylation enrichment (MERTK) was 0.423 and the phosphorylation enrichment (c-Abl (mouse)) was 0.606. The phosphorylation enrichment (c-Src) was 0.473, the SH2 binding enrichment (Grb2 SH2) was 1.01 and the SH2 binding enrichment (SHP2-C SH2) was 0.604. The SH2 binding enrichment (c-Src SH2) was 0.552.

PRLLRYLQLDF [ASB10_Y457] showed a phosphorylation enrichment (AncSZ) of 1.39, a phosphorylation enrichment (EPHB1) of 0.995 and a phosphorylation enrichment (EPHB2) of 0.73. For the same sequence, the phosphorylation enrichment (FGFR1) was 0.648, the phosphorylation enrichment (FGFR3) was 0.873 and the phosphorylation enrichment (Fer (mouse)) was 0.662. The phosphorylation enrichment (Fes) was 1.67, the phosphorylation enrichment (Fyn) was 0.692 and the phosphorylation enrichment (Hck) was 0.65. It also gave a phosphorylation enrichment (Jak2) of 1.53, a phosphorylation enrichment (MERTK) of 0.701 and a phosphorylation enrichment (c-Abl (mouse)) of 1.04. For the same sequence, the phosphorylation enrichment (c-Src) was 0.616, the SH2 binding enrichment (Grb2 SH2) was 1.27 and the SH2 binding enrichment (SHP2-C SH2) was 1.6. The SH2 binding enrichment (c-Src SH2) was 1.11.

With TVQVAYFTMMM [SPATA17_Y83_YF] the phosphorylation enrichment (AncSZ) was 1.04, the phosphorylation enrichment (EPHB1) was 0.662 and the phosphorylation enrichment (EPHB2) was 0.667. It also gave a phosphorylation enrichment (FGFR1) of 1.04, a phosphorylation enrichment (FGFR3) of 1.17 and a phosphorylation enrichment (Fer (mouse)) of 0.678. For the same sequence, the phosphorylation enrichment (Fes) was 1.41, the phosphorylation enrichment (Fyn) was 0.5 and the phosphorylation enrichment (Hck) was 0.59. The phosphorylation enrichment (Jak2) was 1.15, the phosphorylation enrichment (MERTK) was 0.441 and the phosphorylation enrichment (c-Abl (mouse)) was 0.791. For the same sequence, the phosphorylation enrichment (c-Src) was 0.599, the SH2 binding enrichment (Grb2 SH2) was 0.745 and the SH2 binding enrichment (SHP2-C SH2) was 0.704. For the same sequence, the SH2 binding enrichment (c-Src SH2) was 0.453.

With FPDFVYKRIKA [DPYSL2_Y479] the phosphorylation enrichment (AncSZ) was 0.682, the phosphorylation enrichment (EPHB1) was 0.421 and the phosphorylation enrichment (EPHB2) was 0.468. The phosphorylation enrichment (FGFR1) was 0.495, the phosphorylation enrichment (FGFR3) was 0.543 and the phosphorylation enrichment (Fer (mouse)) was 0.424. For the same sequence, the phosphorylation enrichment (Fes) was 0.773, the phosphorylation enrichment (Fyn) was 0.494 and the phosphorylation enrichment (Hck) was 0.443. For the same sequence, the phosphorylation enrichment (Jak2) was 0.793, the phosphorylation enrichment (MERTK) was 0.377 and the phosphorylation enrichment (c-Abl (mouse)) was 0.362. For the same sequence, the phosphorylation enrichment (c-Src) was 0.344, the SH2 binding enrichment (Grb2 SH2) was 0.79 and the SH2 binding enrichment (SHP2-C SH2) was 0.622. It also gave an SH2 binding enrichment (c-Src SH2) of 0.41.

DLHGIYQKLVI showed a phosphorylation enrichment (AncSZ) of 0.886, a phosphorylation enrichment (EPHB1) of 4.32 and a phosphorylation enrichment (EPHB2) of 3.01. For the same sequence, the phosphorylation enrichment (FGFR1) was 1.65, the phosphorylation enrichment (FGFR3) was 1.31 and the phosphorylation enrichment (Fer (mouse)) was 11.4. For the same sequence, the phosphorylation enrichment (Fes) was 1.04, the phosphorylation enrichment (Fyn) was 8.38 and the phosphorylation enrichment (Hck) was 7.64. It also gave a phosphorylation enrichment (Jak2) of 0.82, a phosphorylation enrichment (MERTK) of 5.38 and a phosphorylation enrichment (c-Abl (mouse)) of 3.83. It also gave a phosphorylation enrichment (c-Src) of 5.84, an SH2 binding enrichment (Grb2 SH2) of 0.952 and an SH2 binding enrichment (SHP2-C SH2) of 0.822. It also gave an SH2 binding enrichment (c-Src SH2) of 0.597.

Work on QNTGVYYDLYG [PTPN11_Y62_D61V] yielded a phosphorylation enrichment (AncSZ) of 2, a phosphorylation enrichment (EPHB1) of 6.99 and a phosphorylation enrichment (EPHB2) of 5.61. For the same sequence, the phosphorylation enrichment (FGFR1) was 16.3, the phosphorylation enrichment (FGFR3) was 14.5 and the phosphorylation enrichment (Fer (mouse)) was 3.07. For the same sequence, the phosphorylation enrichment (Fes) was 1.49, the phosphorylation enrichment (Fyn) was 8.43 and the phosphorylation enrichment (Hck) was 7.99. It also gave a phosphorylation enrichment (Jak2) of 2.61, a phosphorylation enrichment (MERTK) of 10.9 and a phosphorylation enrichment (c-Abl (mouse)) of 1.23. It also gave a phosphorylation enrichment (c-Src) of 7.18, an SH2 binding enrichment (Grb2 SH2) of 1.38 and an SH2 binding enrichment (SHP2-C SH2) of 0.892. It also gave an SH2 binding enrichment (c-Src SH2) of 4.65.

RVVVPYEPPEV [TP53_Y220_S215R] was tested, and the phosphorylation enrichment (AncSZ) was 1.01, the phosphorylation enrichment (EPHB1) was 0.523 and the phosphorylation enrichment (EPHB2) was 0.505. The phosphorylation enrichment (FGFR1) was 0.631, the phosphorylation enrichment (FGFR3) was 0.657 and the phosphorylation enrichment (Fer (mouse)) was 0.409. The phosphorylation enrichment (Fes) was 0.99, the phosphorylation enrichment (Fyn) was 0.554 and the phosphorylation enrichment (Hck) was 0.454. The phosphorylation enrichment (Jak2) was 0.892, the phosphorylation enrichment (MERTK) was 0.468 and the phosphorylation enrichment (c-Abl (mouse)) was 0.613. For the same sequence, the phosphorylation enrichment (c-Src) was 0.36, the SH2 binding enrichment (Grb2 SH2) was 0.836 and the SH2 binding enrichment (SHP2-C SH2) was 0.925. It also gave an SH2 binding enrichment (c-Src SH2) of 1.03.
